These results are taken from patent US20180185504A1 (Regeneron, published 2018).

For experiment [1], the target named is T1, human prolactin receptor (PRLR) on cells (human, UniProt P16471 25-622).
T1 sequence: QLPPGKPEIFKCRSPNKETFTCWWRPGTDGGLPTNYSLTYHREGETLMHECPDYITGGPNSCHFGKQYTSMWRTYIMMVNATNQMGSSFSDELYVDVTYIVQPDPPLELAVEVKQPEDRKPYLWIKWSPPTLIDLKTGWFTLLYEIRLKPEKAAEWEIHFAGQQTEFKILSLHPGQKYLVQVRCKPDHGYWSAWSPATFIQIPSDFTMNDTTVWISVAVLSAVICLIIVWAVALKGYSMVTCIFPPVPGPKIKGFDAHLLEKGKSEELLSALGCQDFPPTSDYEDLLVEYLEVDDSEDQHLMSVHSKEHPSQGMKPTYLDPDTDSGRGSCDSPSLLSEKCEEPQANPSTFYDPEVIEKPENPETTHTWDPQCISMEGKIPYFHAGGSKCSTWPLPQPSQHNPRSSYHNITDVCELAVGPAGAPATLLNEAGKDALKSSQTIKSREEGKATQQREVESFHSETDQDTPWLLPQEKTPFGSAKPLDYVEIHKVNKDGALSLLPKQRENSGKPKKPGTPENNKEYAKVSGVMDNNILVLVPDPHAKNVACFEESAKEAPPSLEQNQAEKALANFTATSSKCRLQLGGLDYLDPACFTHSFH
Put plainly: cell-based or functional assay.

Experiment [2] deals with T2, mouse PRLR with an HA tag on HEK293 cells (mouse, UniProt Q08501 20-608).
T2 construct: whole, on cells; also called HEK293/mPRLR; rodent PRLR; not shown: HA tag
T2 sequence (looked up): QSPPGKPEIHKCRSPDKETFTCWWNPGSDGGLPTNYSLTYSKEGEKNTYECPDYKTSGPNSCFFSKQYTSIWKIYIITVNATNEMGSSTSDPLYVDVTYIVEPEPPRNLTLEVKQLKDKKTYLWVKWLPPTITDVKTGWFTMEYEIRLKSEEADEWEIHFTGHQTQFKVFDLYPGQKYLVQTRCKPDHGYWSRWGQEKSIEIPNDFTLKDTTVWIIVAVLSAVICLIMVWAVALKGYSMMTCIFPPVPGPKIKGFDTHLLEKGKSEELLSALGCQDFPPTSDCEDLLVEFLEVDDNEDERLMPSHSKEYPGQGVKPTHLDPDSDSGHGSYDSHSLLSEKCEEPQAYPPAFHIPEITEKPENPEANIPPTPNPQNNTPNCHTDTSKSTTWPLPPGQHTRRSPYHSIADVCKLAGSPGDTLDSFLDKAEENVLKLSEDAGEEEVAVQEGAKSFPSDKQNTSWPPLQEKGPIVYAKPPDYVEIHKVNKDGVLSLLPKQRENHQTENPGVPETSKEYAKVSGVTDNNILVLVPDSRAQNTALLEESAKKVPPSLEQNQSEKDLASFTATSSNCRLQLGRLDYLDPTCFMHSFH
Put plainly: FACS on HEK293/mPRLR cells.

Experiment [3] has as its target T3, human prolactin receptor (PRLR) (human, UniProt P16471 25-622).
T3 sequence: T1 sequence
Nature of the experiment: cell-based or functional assay.

The target of experiment [4] is T3, human prolactin receptor (PRLR). Nature of the experiment: cell-based or functional assay. The source holds these as a separate data set.
The target is the same in experiment [5]. Nature of the experiment: cell-based or functional assay. This is another data set of the same source.
The target is the same in experiment [6]. Put plainly: cell-based or functional assay. This is another data set of the same source.
Experiment [7] shares this target. Nature of the experiment: cell-based or functional assay. The source holds these as a separate data set.
Experiment [8] shares this target. Put plainly: cell-based or functional assay. The source holds these as a separate data set.
For experiment [9] the target is unchanged. Nature of the experiment: cell-based or functional assay. This is another data set of the same source.
Experiment [10] shares this target. Put plainly: cell-based or functional assay. This is another data set of the same source.
For experiment [11] the target is unchanged. Put plainly: cell-based or functional assay. This is another data set of the same source.
Experiment [12] shares this target. Put plainly: cell-based or functional assay. This is another data set of the same source.

Read-outs that look alike come from different tables or passages of the source.

B1: H1H6804P (antibody, human IgG1, V domains shown)
VH: QVTLKESGPVLVKPTQTLSLTCTVSGFSLSDAGMGVSWIRQPPGKALEWLAHIFSNDGKSYSTSLKSRLTISKDTSKRQVVLTMTNMDPVDTATYYCARIRTGTYSLYLDYWGQGTLVTVSS
VL: DIQMTQSPSSLSASVGDRVTITCRASQSINSYLNWYQQKPGKAPKLLLYFASSLQSGVPSRFSGSGSGTDFTLTISSLQPEDFASYYCQESYSTPWTFGQGTKVEIK
Turning to B1, the “IC50, block of STAT5 reporter activation by 5 nM PRL in HEK293/hPRLR/STAT5-Luc cells” value in [1] is 8 nM. For the same molecule, the binding result in experiment [2] is “no binding”.

B2: H1H6762P (antibody, human IgG1, V domains shown)
VH: QVQLVESGGGVVQPGRSLRLSCAASGFTFSHYGMVWVRQPPGKGLEWVALISFDGTTKYYADSVKGRFTISRDNSKNTLYLQMNSLRAEDTAVYFCVGAIAAAAFDLWGRGTLVTVSS
VL: EIVMTQSPATLSVSPGERATLSCRASQSVSSDLAWYQQKPGQAPRLLIYSASARATGIPARFTGSGSGTDFTLTISSLQSEDFAVYYCQQYNNWPMYTFGQGTKLEIK
Consider B2, for which the “IC50, block of STAT5 reporter activation by 5 nM PRL in HEK293/hPRLR/STAT5-Luc cells” value in [1] turned out to be 0.022 nM. For the same molecule, in [2], the binding result is on record as “no binding”.

B3: H1H6953N-DM1 (antibody, human IgG1, V domains shown)
VH: EVQLLESGGGLVQPGGTLRLSCAASGFTFSAYAMSWVRQAPGKGLEWVSSINVRAGDTYYADSVKGRFTISRDNSKNTLFLLMNSLRAEDTAAYYCAKARYSSNWGFDFWGQGTLVTVSS
VL: DIVMTQSPDSLTVSLGARTTINCQSSQTILHSSNNHNYLAWYQQKPGLPPKLLIYWSSTRESGVPDRFSGSGSGTDFTLTISSLQAEDVAIYYCQQYSNTPYTFGQGTKLEIN
modifications: DM1 conjugated through SMCC linker; attachment residues not stated
As to B3, in [3], the “IC50, cell viability, PC3/PRLR cells (PRLR 13X)” value is 0.68 nM. In [4], the “% Kill, 293/PRLR cells” value turned out to be 95%; the “% Kill, PC3/PRLR cells” value was determined as 67%; the “IC50, cell viability, 293/PRLR cells” value came out at 0.28 nM; the “IC50, cell viability, PC3/PRLR cells” value was 0.86 nM. Moreover, in [5], the “% Kill, MCF7/ATCC cells” value turned out to be 70%; the “% Kill, MCF7/PRLR cells” value turned out to be 80%; the “IC50, cell viability, MCF7/ATCC cells” value turned out to be 90 nM; the “IC50, cell viability, MCF7/PRLR cells” value was 0.3 nM. Also, in experiment [6], the “% Kill, MCF7/PRLR cells” value turned out to be 76%; the “% Kill, MCF7 cells” value amounted to 55%; the “% Kill, T47D cells” value amounted to 79%; the “IC50, cell viability, MCF7/PRLR cells” value worked out at 0.29 nM. In experiment [6], the “IC50, cell viability, MCF7 cells” value is 100 nM and the “IC50, cell viability, T47D cells” value came to 1.64 nM. For the same molecule, in [7], the “% Kill, T47D cells” value was found to be 100% and the “IC50, cell viability, T47D cells” value is 1.5 nM. Further, in experiment [8], the “IC50, cell viability, MCF7 cells (PRLR 3X)” value is 82 nM; the “IC50, cell viability, T47D cells (PRLR 12X)” value was determined as 1.3 nM; the “IC50, cell viability, T47D/ErbB2 cells (PRLR 12X)” value was found to be 2.4 nM. In [9], the “IC50, cell viability, MCF7/PRLR cells (PRLR 55X)” value was determined as 0.33 nM; the “IC50, cell viability, MCF/PRLR + ErbB2 cells (PRLR 55X)” value is 0.33 nM; the “IC50, cell viability, NCI-N87/PRLR cells (PRLR 6X)” value worked out at 2.9 nM. In [10], the “% Kill, MCF7/ATCC cells” value is 70%; the “% Kill, MCF7/PRLR cells” value stood at 80%; the “% Kill, PC3/hPRLR cells” value turned out to be 83%; the “IC50, cell viability, MCF7/ATCC cells” value worked out at 80 nM. Besides, in [10], the “IC50, cell viability, MCF7/PRLR cells” value was 0.1 nM and the “IC50, cell viability, PC3/hPRLR cells” value worked out at 0.4 nM. Further, the “IC50, cell viability, 293/PRLR cells (PRLR 18X)” value in experiment [11] turned out to be 0.43 nM.

B4: H1H6782P-DM1 (antibody, human IgG1, V domains shown)
VH: EVQLVESGGGLVQPGRSLRLSCAASGFTFDDYAMHWVRQAPGKGLEWVSGIIWNSGHIGYGDSVKGRFTISRDNAKKSLYLQMNSLRAEDTALYYCARDSGRYQSYFDYWGQGTLVTVSS
VL: DIQMTQSPSTLSASVGDRVTITCRASHIISSWLAWYQQKPGKAPKVLIFKASSLESGVPSRFSGSGSGTEFTLTISSLQPDDFATYYCQQYNTYSRTFGQGTKVEIK
modifications: DM1 conjugated through SMCC linker; attachment residues not stated
Regarding B4, in [4], the “% Kill, PC3/PRLR cells” value is 64% and the “IC50, cell viability, PC3/PRLR cells” value is 0.92 nM. Also, in experiment [5], the “% Kill, MCF7/ATCC cells” value is 70%; the “% Kill, MCF7/PRLR cells” value turned out to be 80%; the “IC50, cell viability, MCF7/ATCC cells” value was 250 nM; the “IC50, cell viability, MCF7/PRLR cells” value worked out at 0.3 nM. In [6], the “% Kill, MCF7/PRLR cells” value came out at 85%; the “% Kill, MCF7 cells” value is 57%; the “% Kill, T47D cells” value is 74%; the “IC50, cell viability, MCF7/PRLR cells” value amounted to 0.65 nM. Besides, in experiment [6], the “IC50, cell viability, MCF7 cells” value came out at 120 nM and the “IC50, cell viability, T47D cells” value was 4.19 nM. Also, in experiment [7], the “% Kill, T47D cells” value stood at 100% and the “IC50, cell viability, T47D cells” value is 3 nM. Moreover, in experiment [12], the “IC50, cell viability, T47D cells, + 15 nM PRL” value was determined as 2 nM and the “IC50, cell viability, T47D cells, without PRL” value was determined as 1 nM.

B5: H1H6958N2-DM1 (antibody, human IgG1, V domains shown)
VH: QVQLVESGGGVVQPGRSLRLSCGASGFTFRNYGMQWVRQGPGKGLEWVTLISFDGNDKYYADSVKGRFTISRDNSKNTLFLQMNSLRTEDTAVYYCARGGDFDYWGQGTLVTVSS
VL: DIQMTQSPSSLSASVGDRVTITCRASQDIRKDLGWYQQKPGKAPKRLIYAASSLHSGVPSRFSGSGSGTEFTLTISSLQPEDFATYYCLQHNSYPMYTFGQGTKLEIK
modifications: DM1 conjugated through SMCC linker; attachment residues not stated
Turning to B5, in [4], the “% Kill, 293/PRLR cells” value is 95%; the “% Kill, PC3/PRLR cells” value came to 83%; the “IC50, cell viability, 293/PRLR cells” value was determined as 0.1 nM; the “IC50, cell viability, PC3/PRLR cells” value was found to be 0.43 nM. In addition, in experiment [5], the “% Kill, MCF7/ATCC cells” value was determined as 70%; the “% Kill, MCF7/PRLR cells” value was 80%; the “IC50, cell viability, MCF7/ATCC cells” value stood at 70 nM; the “IC50, cell viability, MCF7/PRLR cells” value came out at 0.2 nM. For the same molecule, in [6], the “% Kill, MCF7/PRLR cells” value stood at 77%; the “% Kill, MCF7 cells” value was found to be 77%; the “% Kill, T47D cells” value turned out to be 71%; the “IC50, cell viability, MCF7/PRLR cells” value was found to be 0.19 nM. For the same molecule, in experiment [6], the “IC50, cell viability, MCF7 cells” value stood at 100 nM and the “IC50, cell viability, T47D cells” value turned out to be 1.34 nM. Further, in experiment [7], the “% Kill, T47D cells” value was determined as 100% and the “IC50, cell viability, T47D cells” value is 2 nM. In addition, in [10], the “% Kill, MCF7/ATCC cells” value came out at 72%; the “% Kill, MCF7/PRLR cells” value is 83%; the “% Kill, PC3/hPRLR cells” value came out at 79%; the “IC50, cell viability, MCF7/ATCC cells” value came out at 90 nM. Moreover, in experiment [10], the “IC50, cell viability, MCF7/PRLR cells” value was found to be 0.2 nM and the “IC50, cell viability, PC3/hPRLR cells” value came to 0.5 nM. For the same molecule, in [12], the “IC50, cell viability, T47D cells, + 15 nM PRL” value amounted to 3 nM and the “IC50, cell viability, T47D cells, without PRL” value turned out to be 1 nM.
